The target in assay [1] is Papain (UniProt P00784). Briefly: cell-based or functional assay.
Assay [2] addresses trypsin. Briefly: cell-based or functional assay.

Chain of UniProt P00784 (P00784 134-345 limits assumed): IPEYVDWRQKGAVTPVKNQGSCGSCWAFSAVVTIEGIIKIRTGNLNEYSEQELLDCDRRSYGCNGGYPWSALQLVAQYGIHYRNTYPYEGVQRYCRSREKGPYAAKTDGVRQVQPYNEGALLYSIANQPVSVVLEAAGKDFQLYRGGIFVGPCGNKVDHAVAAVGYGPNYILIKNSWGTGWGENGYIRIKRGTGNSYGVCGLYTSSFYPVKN

The substance “Oc-IΔD86/PsMTa/CpTI fusion protein (products of the construct) (from UniProt P09229 39-140)” came in with an inhibition of papain activity (relative inhibition assay, substrate N-Cbz-Phe-Arg-7-amido-4-methylcoumarin) in assay [1] of 95%. This substance returned an inhibition of trypsin activity (relative inhibition assay, substrate N-Cbz-Phe-Arg-7-amido-4-methylcoumarin) in assay [2] of 95%.
Consider “Oc-IΔD86/go/CpTI fusion protein (from UniProt P09229 39-140)”, for which the inhibition of papain activity (relative inhibition assay, substrate N-Cbz-Phe-Arg-7-amido-4-methylcoumarin) in assay [1] was 95%. The substance further had an inhibition of trypsin activity (relative inhibition assay, substrate N-Cbz-Phe-Arg-7-amido-4-methylcoumarin) in assay [2] of 95%.
